Assay results published in patent publication US20140154256A1 (published 2014).

T1: recombinant human IL-1α (human, UniProt P01583 113-271)
T1 construct: Bought recombinant protein; also called rhIL-1α; hIL-1α
T1 sequence (looked up): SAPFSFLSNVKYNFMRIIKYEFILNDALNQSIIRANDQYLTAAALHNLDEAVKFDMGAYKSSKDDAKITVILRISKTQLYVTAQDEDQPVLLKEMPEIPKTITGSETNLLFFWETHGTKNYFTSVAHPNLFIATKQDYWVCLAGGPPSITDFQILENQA


Key:
recombinant human IL-1α [1] = target: T1, recombinant human IL-1α; experiment: SPR (Biacore); hIL-1α as 2nd antigen, DVD1-Ig already occupied by hIL-1β
Description: (§1) The equilibrium dissociation constant (M) of the reaction between DVD-Ig and rhIL1α/β was then calculated from the kinetic rate constants by the following formula: KD=koff/kon. Aliquots of rhIL1α/β samples were also simultaneously injected over a blank reference and reaction CM surface to record and subtract any nonspecific binding background to eliminate the majority of the refractive index change and injection noise. Surfaces were regenerated with two subsequent […] injections of 10 mM Glycine (pH 1.5) at a flow rate of […]. The anti-Fc antibody immobilized surfaces were completely regenerated and retained their full capture capacity over twelve cycles. The apparent stoichiometry of the captured DVD-Ig-rhIL1α/β complex was calculated under saturating binding conditions (steady-state equilibrium) using the following formula: […]
(§2) In addition, tetravalent dual-specific antigen binding of DVD-Ig was also analyzed by Biacore (Table 14). DVD-Ig was first captured via a goat anti-human Fc antibody on the Biacore sensor chip, and the first antigen was injected and a binding signal observed. As the DVD-Ig was saturated by the first antigen, the second antigen was then injected and the second signal observed. This was done either by first injecting IL-1β then IL-1α or by first injecting IL-1α followed by IL-1β for DVD2-Ig. In either sequence, a dual-binding activity was detected. […]

recombinant human IL-1β [2] = target: T2, recombinant human IL-1β (human, UniProt P01584 117-269); experiment: SPR (Biacore); hIL-1β as 1st antigen
T2 construct: also called rhIL-1β; hIL-1β
Description: as §1, §2

recombinant human IL-1α [3] = target: T1, recombinant human IL-1α; experiment: SPR (Biacore); hIL-1α as 1st antigen
Description: as §1, §2

recombinant human IL-1α [4] = target: T1, recombinant human IL-1α; experiment: SPR (Biacore)
Description: as §1, with “Purified DVD-Ig samples were diluted in HEPES-buffered saline for capture across goat anti-human IgG Fc specific reaction surfaces and injected over reaction matrices at a flow rate of […]. The association and dissociation rate constants, kon (M-1s-1) and koff (s−1) were determined under a continuous flow rate of […]. […] The equilibrium” for “The equilibrium”
(§3) The affinity of the two DVD-Igs to hIL-1 as compared to the affinity of chimeric Abs to hIL-1 was similar as indicated by the evaluation of the stoichiometry to IL-1. Both chimeric Abs, being bivalent monospecific, bound to IL-1α and IL-1β on Biocore with a stoichiometry of 1.6 and 1.7, respectively. This is common for an IgG due to inter-molecular interference when antibodies are immobilized densely on the Biacore sense chip resulting in stoichiometry being in the range from 1.5 to 2.0.

recombinant human IL-1β [5] = target: T2, recombinant human IL-1β; experiment: cell-based or functional assay
recombinant human IL-1α [6] = target: T1, recombinant human IL-1α; experiment: cell-based or functional assay
recombinant human IL-1β [7] = target: T2, recombinant human IL-1β; experiment: SPR (Biacore), saturating conditions
recombinant human IL-1α [8] = target: T1, recombinant human IL-1α; experiment: SPR (Biacore), saturating conditions
recombinant human IL-1β [9] = target: T2, recombinant human IL-1β; experiment: SPR (Biacore 3000); antibody captured via goat anti-human IgG Fc, antigen injected, 1:1 Langmuir fit
Description: (§4) The kinetics of DVD-Ig binding to rhIL1-α and rhIL1-β was determined by surface plasmon resonance-based measurements with a Biacore 3000 instrument (Biacore AB, Uppsala, Sweden) using HBS-EP (10 mM HEPES, pH 7.4, 150 mM NaCl, 3 mM EDTA, and 0.005% surfactant P20) at 25° C. All chemicals were obtained from Biacore AB (Uppsala, Sweden) or otherwise from a different source as described herein. Approximately, 5000 RU of goat anti-human IgG Fcγ fragment specific polyclonal antibody (Pierce Biotechnology Inc, Rockford, Ill.) diluted in 10 mM sodium acetate (pH 4.5) was directly immobilized across a CM5 research grade biosensor chip using a standard amine coupling kit according to manufacturer's instructions and procedures at 25 mg/ml. Unreacted moieties on the biosensor surface were blocked with ethanolamine. Modified carboxymethyl dextran surface in flowcell 2 and 4 was used as a reaction surface. Unmodified carboxymethyl dextran without goat anti-human IgG in flow cell 1 and 3 was used as the reference surface. For kinetic analysis, rate equations derived from the 1:1 Langmuir binding model were fitted simultaneously to association and dissociation phases of all ten injections (using global fit analysis) using the Bioevaluation 4.0.1 software. Purified DVD-Ig samples were diluted in HEPES-buffered saline for capture across goat anti-human IgG Fc specific reaction surfaces and injected over reaction matrices at a flow rate of […]. The association and dissociation rate constants, kon (M-1s-1) and koff (s−1) were determined under a continuous flow rate of […]. […] The equilibrium dissociation constant (M) of the reaction between DVD-Ig and rhIL1α/β was then calculated from the kinetic rate constants by the following formula: KD=koff/kon. Aliquots of rhIL1α/β samples were also simultaneously injected over a blank reference and reaction CM surface to record and subtract any nonspecific binding background to eliminate the majority of the refractive index change and injection noise. Surfaces were regenerated with two subsequent […] injections of 10 mM Glycine (pH 1.5) at a flow rate of […]. The anti-Fc antibody immobilized surfaces were completely regenerated and retained their full capture capacity over twelve cycles.

recombinant human IL-1α [10] = target: T1, recombinant human IL-1α; experiment: as above
Description: as §4

recombinant human IL-1β [11] = target: T2, recombinant human IL-1β; experiment: cell-based or functional assay; remark: listed apart in the source
recombinant human IL-1α [12] = target: T1, recombinant human IL-1α; experiment: cell-based or functional assay; remark: listed apart in the source
recombinant human IL-1β [13] = target: T2, recombinant human IL-1β; experiment: SPR (Biacore); hIL-1β as 2nd antigen, DVD1-Ig already occupied by hIL-1α
Description: as §1, §2

recombinant human IL-1α [14] = target: T1, recombinant human IL-1α; experiment: SPR (Biacore); hIL-1α as 2nd antigen, DVD2-Ig already occupied by hIL-1β
Description: as §1, §2

recombinant human IL-1β [15] = target: T2, recombinant human IL-1β; experiment: SPR (Biacore)
Description: as §1, with “Purified DVD-Ig samples were diluted in HEPES-buffered saline for capture across goat anti-human IgG Fc specific reaction surfaces and injected over reaction matrices at a flow rate of […]. The association and dissociation rate constants, kon (M-1s-1) and koff (s−1) were determined under a continuous flow rate of […]. […] The equilibrium” for “The equilibrium”
as §3

recombinant human IL-1β [16] = target: T2, recombinant human IL-1β; experiment: SPR (Biacore); hIL-1β as 2nd antigen, DVD2-Ig already occupied by hIL-1α
Description: as §1, §2

Stoichiometry hIL1α:DVD-Ig (recombinant human IL-1α [1]) | Stoichiometry hILβ:DVD-Ig (recombinant human IL-1β [2]) | Stoichiometry hIL1α:DVD-Ig (recombinant human IL-1α [3]) | fold lower affinity than the chimeric 3D12.E3 Ab (recombinant human IL-1α [4]) [fold] | dual-inhibition activity, MRC-5 assay with equal amounts of hIL-1α and hIL-1β both present (recombinant human IL-1β [5]) [nM] | dual-inhibition activity, MRC-5 assay with equal amounts of hIL-1α and hIL-1β both present (recombinant human IL-1α [6]) [nM] | Stoichiometry (recombinant human IL-1β [7]) | Stoichiometry (recombinant human IL-1α [8]) | Kd (recombinant human IL-1β [9]) [nM] | koff (recombinant human IL-1β [9]) [s⁻¹] | kon (recombinant human IL-1β [9]) [M⁻¹ s⁻¹] | Kd (recombinant human IL-1α [10]) [nM] | koff (recombinant human IL-1α [10]) [s⁻¹] | kon (recombinant human IL-1α [10]) [M⁻¹ s⁻¹] | Potency (IC50) M, MRC-5 bioassay (recombinant human IL-1β [11]) [nM] | Potency (IC50) M, MRC-5 bioassay (recombinant human IL-1α [12]) [nM] | Stoichiometry hILβ:DVD-Ig (recombinant human IL-1β [13]) | Stoichiometry hIL1α:DVD-Ig (recombinant human IL-1α [14]) | fold higher affinity than DVD1-Ig (recombinant human IL-1β [15]) [fold] | Stoichiometry hILβ:DVD-Ig (recombinant human IL-1β [16]) | Binder
1.1 | 1.5 | 2.3 | 2 to 3 | 2.2 | 2.2 | 1.5 | 1.8 | 2.6 | 0.00159 | 609000 | 2.83 | 0.000105 | 37000 | 3.1 | 2.3 | 1 |  |  |  | hIL-1α/βDVD1-Ig (bispecific antibody, human IgG1, kappa, 13F5.G5 variable domains fused directly (no linker) to the N-terminus of 3D12.E3 variable domains, human Cγ1/Cκ; also called hIL-1a/bDVD1-Ig) heavy: not shown light: NIVLTQSPASLAVSLGQRATISCRASESVDSYGNSYMHWYQQKPGQPPKLLIYLASNLESGVPARFSGSGSRTDFTLTIDPVEADDAATYYCQQNNEDPFTFGSGTKLEIKRNIQMTQTTSSLSASLGDRVTISCRASQDISNCLNWYQQKPDGTVKLLIYYTSRLHSGVPSRFSGSGSGTDYSLTISNLEQEDIATYFCQQGKTLPYAFGGGTKLEINRTVAAPSVFIFPPSDEQLKSGTASVVCLLNNFYPREAKVQWKVDNALQSGNSQESVTEQDSKDSTYSLSSTLTLSKADYEKHKVYACEVTHQGLSSPVTKSFNRGEC
 | 1.6 | 1.8 | 3 | 1.2 | 1.2 |  |  |  |  |  |  |  |  |  |  |  | 1.2 | 3 | 1.3 | hIL-1α/βDVD2-Ig (bispecific antibody, human IgG1, kappa, 13F5.G5 V - linker (AKTTPP heavy, ADAAP light) - 3D12.E3 V - human Cγ1/Cκ; also called hIL-1a/bDVD2-Ig) heavy: not shown light: NIVLTQSPASLAVSLGQRATISCRASESVDSYGNSYMHWYQQKPGQPPKLLIYLASNLESGVPARFSGSGSRTDFTLTIDPVEADDAATYYCQQNNEDPFTFGSGTKLEIKRADAAPNIQMTQTTSSLSASLGDRVTISCRASQDISNCLNWYQQKPDGTVKLLIYYTSRLHSGVPSRFSGSGSGTDYSLTISNLEQEDIATYFCQQGKTLPYAFGGGTKLEINRTVAAPSVFIFPPSDEQLKSGTASVVCLLNNFYPREAKVQWKVDNALQSGNSQESVTEQDSKDSTYSLSSTLTLSKADYEKHKVYACEVTHQGLSSPVTKSFNRGEC
